Test results from patent US20230203111A1 (published 2023).

B1: HFn-Mt-3 (ligand)
chain: TTASTSQVRQNYHQDSEAAINRQINLELYASYVYLSMSYYFDRDDVALKNFAKYFLHQSHEEREHAEKLMKLQNQRGGRICLQDIKKPDSDDWESGLNAMESALHLEKNVNQSLLELHKLATDKNDPHLSDFIETHYLNEQVKAIKELGDHVTNLRKMGAPESGLAEYLFDKHTLGDSDNES
notes: cage protein; also called HFn-Mut-3
B2: HFn-Mt-5 (ligand)
chain: TTASTSQVRQNYHQDSEAAINRQINLELYASYVYLSMSYYFDRDDVALKNFAKYFLHQSHEEREHAEKLMKLQNQRGGRIFLCDIKKPDSDDWESGLNAMESALHLEKNVNQSLLELHKLATDKNDPHLSDFIETHYLNEQVKAIKELGDHVTNLRKMGAPESGLAEYLFDKHTLGDSDNES
notes: cage protein; also called HFn-Mut-5

Target: T1, TFR1 (human source) (human, UniProt P02786 89-760, limits assumed)
T1 construct: Soluble reagent added at 2 µg/mL to ferritin-coated ELISA plates; also called Tfr1 receptor; Tfr-1 receptor
Assay: ELISA, ferritin coated, human TFR1 2 µg/mL

T1 sequence (P02786 89-760 limits assumed): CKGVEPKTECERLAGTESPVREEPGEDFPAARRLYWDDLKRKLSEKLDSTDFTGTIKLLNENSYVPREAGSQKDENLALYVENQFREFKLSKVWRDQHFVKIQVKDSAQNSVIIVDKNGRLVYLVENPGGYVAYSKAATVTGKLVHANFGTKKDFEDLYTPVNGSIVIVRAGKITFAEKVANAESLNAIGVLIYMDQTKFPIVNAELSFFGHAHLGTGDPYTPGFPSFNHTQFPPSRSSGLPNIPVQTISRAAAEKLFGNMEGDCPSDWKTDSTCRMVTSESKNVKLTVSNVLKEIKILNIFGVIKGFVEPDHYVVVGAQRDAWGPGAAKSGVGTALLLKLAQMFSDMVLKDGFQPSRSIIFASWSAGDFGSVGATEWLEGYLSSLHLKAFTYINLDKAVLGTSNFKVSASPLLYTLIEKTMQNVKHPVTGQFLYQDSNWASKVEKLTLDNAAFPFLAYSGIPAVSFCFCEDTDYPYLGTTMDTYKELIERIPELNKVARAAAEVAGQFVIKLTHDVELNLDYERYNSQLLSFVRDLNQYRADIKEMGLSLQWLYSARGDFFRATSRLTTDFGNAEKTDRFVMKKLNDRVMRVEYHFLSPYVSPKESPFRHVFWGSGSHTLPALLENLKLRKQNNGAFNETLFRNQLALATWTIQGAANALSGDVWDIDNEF

Binder	binding result
B1	no binding
B2	no binding
